Measured values from the nanobody polyreactivity screen of Harvey et al. (2022).

Assay: yeast display, Sf9 membrane polyspecificity reagent, FACS + sequencing; frameworks hold sequencing errors
Procedure, shortened: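 After 36–48 hours of galactose induction, yeast (Saccharomyces cerevisiae BJ5465) displaying a synthetic nanobody library were stained at 4 °C for 1 hour with 10% biotinylated, detergent-solubilized Sf9 membrane reagent. Streptavidin microbeads enriched the stained cells before FACS sorting into low and high (top ~1%) gates on anti-HA and streptavidin fluorescence. Each clone's polyreactivity label reflects its gate of origin.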

Sequence	polyreactivity (PSR sort gate)
QVQLVESGGGLVQAGGSLRLSCAASGNTFYGYAMGWYRQAPGKERELVASITLSGDSTYYADSVKGRFTISRDNAKNTVYLQMNSLKPADTAVYYCAGVYTYPLGYYHYTYDYWGQGTQVTVSS	low polyreactivity
QVQLVESGGGLVQAGGSLRLSCAASGNTFYGYSMGWYRQAPGKERELVASITLSGDSTYYADSVKGRFTISRDNAKNTVYLQMNSLKPEDTAVYYCARRSRESYEYDYWGQGTQVTVSS	low polyreactivity
QVQLVESGGGLVQAGGSLRLSCAASGNTFYHYAMGWYRQAPVKERELVAGIRYNGGSTYYADSVKGRFTISRDNAKNTVYLQMISLKPEDTAVYYCATRGRTAWYTMDYWGQGTQVTVSS	high polyreactivity
QVQLVESGGGLVQAGGSLRLSCAASGNTFYLYAMGWYRQAPGKEREFVAAITGNGGSTYYADSVKGRFTISRDNAKNTVYLQMNSLKPEDTEVYYCAATFWGYNQYDYWGQGTQVTVSS	high polyreactivity
QVQLVESGGGLVQAGGSLRLSCAASGNTFYRNAMGWYRQAPGKDRELVAAIDYGGSTTYYADSVKGRFTISRDNSKNTVYLQMNSLKPEDTAVYYCAAREYRIGHVQPMDYWGQGTQVTVSS	high polyreactivity
QVQLVESGGGLVQAGGSLRLSCAASGNTFYVKVMGWSRQAPGKERELVARITTSGGSTSYAESVKGRFTISRDNAKNTVSFQMNSMKPEDTAVYYCAASYHAFQNWEYDYWGQGTQVTVSS	low polyreactivity
QVQLVESGGGLVQAGGSLRLSCAASGNTIDRYDMGWYRQPPGKEREFVAAITASAGSTYADSVKGRFTISRDNAKNTVYLQMNSLKPEDSAVYYCNAGNSSTGVDRYDYWGQGTQVTVSS	low polyreactivity
QVQLVESGGGLVQAGGSLRLSCAASGNTIDSYGMGWYRQAPGKERELVAAISTSGGSTYYADSVKGRFTISRDNAKNTVYLQMNSLKPEDTAVYYCNATWTMTYDYWGQGTQVTVSS	low polyreactivity
QVQLVESGGGLVQAGGSLRLSCAASGNTIGKYAMGWYRQAPGKETELVATITRRGGSTYYADSVKGRFTISRDNAKNTVYLQMNSLKPEDTAVYYCNRAVTYGTYDYWGQGTQVTVSS	high polyreactivity
QVQLVESGGGLVQAGGSLRLSCAASGNTLDWYAMGGSRQAPGKERELVAAISSAGSTSYADSVKGRFTISRDNAKNTVYLQMNSLKPEDTAVYYCNVDVYSKDANFQSFASEYDYWGQGTQVTVSS	low polyreactivity
QVQLVESGGGLVQAGGSLRLSCAASGNTLGYYAMGWYRPAPGKERELVATISDDGTTYYADSVKGRFTISRDNAKNTVSLQMNSLKPEDTAVYYCATDGSAQYSMDYWGQGTQVTVSS	low polyreactivity
QVQLVESGGGLVQAGGSLRLSCAASGNTLRYNVMGWYRQAPGKERELVAAISGGGSTSYTDSVKGRLTISRDNAKNTVYLQMNSLKPEDTAVYYCATRSFVGGRGRDSDYWGQGTQVTVSS	low polyreactivity
QVQLVESGGGLVQAGGSLRLSCAASGNTLSFYTMGWYRQAPGKERELVAAISSDGTTYYADSVKGRFTISRDNAKNTVYLQMNSLKPEDTAVYYCAKAHYEWIWTRYDYWGQGTQVTVSS	low polyreactivity
QVQLVESGGGLVQAGGSLRLSCAASGNTLVYYAMGWYRQAPGKERELVADISSSGGITYYADSVKGRFTISRDNAKNTVYLLMNSLKPVDTAVYYCAVDYPLYYWYLYNYWGQGTQVTVSS	low polyreactivity
QVQLVESGGGLVQAGGSLRLSCAASGNTLYTNAMGWYRQAPGKERELVAVISRGGSTYYADSVKGRFTISRDNAKNTVYLQMNSLKPEDTAVYYCATYGSSWSRAYGYWGQGTQVTVSS	high polyreactivity
QVQLVESGGGLVQAGGSLRLSCAASGNTVWYNAMGWFIQAPGKETELVAAISYSGGGTYYAVSVKGRFTISREKAKNTVYLQMNCLKPDDSAVYYCSADTLQRAFVLYDYWGQGTQVTVSS	low polyreactivity
QVQLVESGGGLVQAGGSLRLSCAASGNTVYYYGMGWYRQAPGKERDLVAAINYSGGSTYYADSVKGRNTISRDNAKNTVYLPMNSKKPEVTAVYYCNADYVPAYRDLASLADGYYWGQGTQVTVSS	low polyreactivity
QVQLVESGGGLVQAGGSLRLSCAASGNTYSYNAMGWYRQAPGKEREFVASISRRGGRTNYADSVKGRFTISRDNAKNTVYLQMNSLKPEDTAVYYCAATTVPLGDYWGQVTQVTVSS	high polyreactivity
QVQLVESGGGLVQAGGSLRLSCAASGPIYTYAMGWYRHAPGKERELVAAISRRGGSTYYADSVKGRFTISRDNAKNTVYLQMNSLKPEDTAVYYCAKERSFGDGNFDYEYWGQGTQVTVSS	high polyreactivity
QVQLVESGGGLVQAGGSLRLSCAASGPNFTKYAMGWYRPAPGKERELVAGISSRGTSTYYADSVKGRFTISRDNAKNTVYLQMNSLKPEDTAVYYCNKDSKSRFTYDYWGQGTQVTVSS	high polyreactivity
QVQLVESGGGLVQAGGSLRLSCAASGPTFNRYTMGWYRQAPGKERELVATITGGGSTNYADSVKGRFTISRDNAKNTVYLQMNSLKPEDTAVYYCARAVVQSRGPPRYKTPYDYWGQGTQVTVSS	low polyreactivity
QVQLVESGGGLVQAGGSLRLSCAASGQIFVRNAMGWYRQAPGKERELVARISSGGSTNYADSVKGRFTISRDNAKNTVYLQMISLKPEDTAVYYCAARVYKGWPTHYDYWGQGTQVTVSS	high polyreactivity
